Laboratory results taken from patent US20100272709A1 (GENERAL HOSPITAL, published 2010).
Values belong to the molecule of their own block, whether it stands above or below them.

Experiments:
[1] = molecular target: wild type dynamin (dynWT; recombinant dynamin 1) (UniProt Q05193); assay: FLIM/FRET in fixed podocytes; donor GTPase-a488, acceptor Hudy1-a568; self-assembly
[2] = molecular target: wild type dynamin (dynWT; recombinant dynamin 1) (UniProt Q05193); assay: FLIM/FRET in fixed podocytes treated with LPS; donor GTPase-Alexa488, acceptor Hudy1-Alexa568; self-assembly
[3] = molecular target: wild type dynamin (dynWT; recombinant dynamin 1) (UniProt Q05193); assay: FLIM/FRET in fixed podocytes treated with cytochalasin D; donor GTPase-a488, acceptor Hudy1-a568; self-assembly
[4] = molecular target: wild type dynamin (dynWT; recombinant dynamin 1) (UniProt Q05193); assay: FLIM/FRET in fixed podocytes treated with LPS + E64; donor GTPase-Alexa488, acceptor Hudy1-Alexa568; self-assembly
[5] = molecular target: wild type dynamin (dynWT; recombinant dynamin 1) (UniProt Q05193); assay: FLIM/FRET in fixed podocytes; donor GTPase-alexa488, acceptor hudy1-alexa568; the value differs from the WT row of Table 1
[6] = molecular target: wild type dynamin (dynWT; recombinant dynamin 1) (UniProt Q05193); assay: FLIM/FRET in fixed podocytes treated with colchicine; donor GTPase-a488, acceptor Hudy1-a568; variant not given, taken as WT
[7] = molecular target: wild type dynamin (dynWT; recombinant dynamin 1) (UniProt Q05193); assay: FLIM/FRET in fixed podocytes treated with jasplakinolide; donor GTPase-a488, acceptor Hudy1-a568; variant not given, taken as WT
[8] = molecular target: wild type dynamin (dynWT; recombinant dynamin 1) (UniProt Q05193); assay: FLIM/FRET in fixed podocytes expressing the variant; donor GTPase-Alexa488, acceptor Hudy1-Alexa568; shorter lifetime = dynamin higher order self-assembly
[9] = molecular target: wild type dynamin (dynWT; recombinant dynamin 1) (UniProt Q05193); assay: FLIM/FRET in fixed podocytes; donor GTPase-a488, acceptor GTPase-a568 (same antibody on both); the text says no FRET signal was detected with this antibody pair
[10] = molecular target: dynK694A (assembly impaired, dominant activating dynamin mutant) (UniProt Q05193); assay: FLIM/FRET in fixed podocytes; donor GTPase-a488, acceptor Hudy1-a568; self-assembly
[11] = molecular target: dynK694A (assembly impaired, dominant activating dynamin mutant) (UniProt Q05193); assay: FLIM/FRET in fixed podocytes treated with cytochalasin D; donor GTPase-a488, acceptor Hudy1-a568; self-assembly
[12] = molecular target: dynK694A (assembly impaired, dominant activating dynamin mutant) (UniProt Q05193); assay: FLIM/FRET in fixed podocytes expressing the variant; donor GTPase-Alexa488, acceptor Hudy1-Alexa568; self-assembly
EYFP-dynI690K fusion = molecular target: T1, EYFP-dynI690K fusion (UniProt Q05193 1-864); assay: FLIM/FRET in live COS cells; lifetime of the ECFP donor; self-assembly
T1 construct: it is read as I690K; also called YFP-1690K; not shown: EYFP tag
T1 sequence (looked up): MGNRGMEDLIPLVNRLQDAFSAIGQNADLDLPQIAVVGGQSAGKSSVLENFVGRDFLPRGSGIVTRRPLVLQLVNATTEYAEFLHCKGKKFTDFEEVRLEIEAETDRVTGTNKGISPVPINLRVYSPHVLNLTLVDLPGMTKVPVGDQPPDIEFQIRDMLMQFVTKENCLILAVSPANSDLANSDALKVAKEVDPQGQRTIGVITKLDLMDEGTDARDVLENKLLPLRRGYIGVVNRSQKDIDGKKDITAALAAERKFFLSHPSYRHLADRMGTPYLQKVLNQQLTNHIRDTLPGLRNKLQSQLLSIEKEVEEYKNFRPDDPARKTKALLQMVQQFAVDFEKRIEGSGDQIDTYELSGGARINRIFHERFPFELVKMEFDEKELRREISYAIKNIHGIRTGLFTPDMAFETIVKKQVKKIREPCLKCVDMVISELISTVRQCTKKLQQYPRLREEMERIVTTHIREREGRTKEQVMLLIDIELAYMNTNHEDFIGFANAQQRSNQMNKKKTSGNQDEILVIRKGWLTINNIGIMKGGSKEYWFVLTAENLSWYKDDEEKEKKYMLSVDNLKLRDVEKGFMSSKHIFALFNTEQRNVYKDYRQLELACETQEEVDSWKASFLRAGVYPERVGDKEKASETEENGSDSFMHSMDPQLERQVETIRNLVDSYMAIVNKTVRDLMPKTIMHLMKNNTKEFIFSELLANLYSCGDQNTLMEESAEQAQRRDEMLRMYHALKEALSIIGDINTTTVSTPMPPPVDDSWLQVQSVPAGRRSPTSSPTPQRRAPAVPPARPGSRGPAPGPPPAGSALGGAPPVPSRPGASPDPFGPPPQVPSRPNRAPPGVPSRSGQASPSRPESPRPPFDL

[13] = molecular target: T2, EYFP-dynamin wild type fusion (UniProt Q05193 1-864); assay: as above
T2 construct: also called YFP-WT; EYFP-dynWT; not shown: EYFP tag
T2 sequence (looked up): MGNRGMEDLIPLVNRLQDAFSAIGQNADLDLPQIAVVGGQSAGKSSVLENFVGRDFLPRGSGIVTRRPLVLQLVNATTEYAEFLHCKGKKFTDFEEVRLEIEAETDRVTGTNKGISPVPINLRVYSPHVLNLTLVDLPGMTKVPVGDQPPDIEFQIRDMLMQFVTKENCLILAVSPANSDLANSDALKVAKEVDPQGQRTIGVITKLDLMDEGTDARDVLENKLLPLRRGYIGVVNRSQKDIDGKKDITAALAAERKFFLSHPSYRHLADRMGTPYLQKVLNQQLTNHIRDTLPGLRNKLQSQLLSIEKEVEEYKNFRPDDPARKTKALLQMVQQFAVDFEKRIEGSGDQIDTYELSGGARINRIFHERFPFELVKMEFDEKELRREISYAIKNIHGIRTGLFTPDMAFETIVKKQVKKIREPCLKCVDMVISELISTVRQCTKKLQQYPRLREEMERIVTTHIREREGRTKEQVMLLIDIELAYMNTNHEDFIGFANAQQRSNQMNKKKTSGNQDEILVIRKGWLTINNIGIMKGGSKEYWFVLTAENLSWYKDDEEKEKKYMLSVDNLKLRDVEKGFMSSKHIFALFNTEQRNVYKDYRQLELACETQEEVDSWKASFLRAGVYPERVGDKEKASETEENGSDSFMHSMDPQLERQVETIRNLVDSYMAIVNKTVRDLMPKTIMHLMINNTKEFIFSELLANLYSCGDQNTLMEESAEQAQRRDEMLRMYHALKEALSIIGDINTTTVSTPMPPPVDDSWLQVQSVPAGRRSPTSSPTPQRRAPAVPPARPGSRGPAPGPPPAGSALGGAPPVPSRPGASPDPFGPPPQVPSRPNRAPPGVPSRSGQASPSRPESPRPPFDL

Mean Lifetime (γ1) [1]: 2250 ps | Mean Lifetime (γ1) [2]: 2560 ps | Mean Lifetime (γ1) [3]: 2030 ps | Mean Lifetime (γ1) [4]: 2280 ps | lifetime t1 [5]: 2270 ps | Mean Lifetime (γ1) [6]: 2300 ps | Mean Lifetime (γ1) [7]: 2250 ps | Mean Lifetime (γ1) [8]: 2210 ps | Mean Lifetime (γ1) [9]: 2420 ps
Molecule: wild type dynamin (dynWT; recombinant dynamin 1) (from UniProt Q05193 1-864) (enzyme)

Mean Lifetime (γ1) [10]: 2410 ps | Mean Lifetime (γ1) [11]: 2050 ps | Mean Lifetime (γ1) [12]: 2410 ps
B1: dynK694A (assembly impaired, dominant activating dynamin mutant) (enzyme, UniProt Q05193 1-864, looked up)
chain: MGNRGMEDLIPLVNRLQDAFSAIGQNADLDLPQIAVVGGQSAGKSSVLENFVGRDFLPRGSGIVTRRPLVLQLVNATTEYAEFLHCKGKKFTDFEEVRLEIEAETDRVTGTNKGISPVPINLRVYSPHVLNLTLVDLPGMTKVPVGDQPPDIEFQIRDMLMQFVTKENCLILAVSPANSDLANSDALKVAKEVDPQGQRTIGVITKLDLMDEGTDARDVLENKLLPLRRGYIGVVNRSQKDIDGKKDITAALAAERKFFLSHPSYRHLADRMGTPYLQKVLNQQLTNHIRDTLPGLRNKLQSQLLSIEKEVEEYKNFRPDDPARKTKALLQMVQQFAVDFEKRIEGSGDQIDTYELSGGARINRIFHERFPFELVKMEFDEKELRREISYAIKNIHGIRTGLFTPDMAFETIVKKQVKKIREPCLKCVDMVISELISTVRQCTKKLQQYPRLREEMERIVTTHIREREGRTKEQVMLLIDIELAYMNTNHEDFIGFANAQQRSNQMNKKKTSGNQDEILVIRKGWLTINNIGIMKGGSKEYWFVLTAENLSWYKDDEEKEKKYMLSVDNLKLRDVEKGFMSSKHIFALFNTEQRNVYKDYRQLELACETQEEVDSWKASFLRAGVYPERVGDKEKASETEENGSDSFMHSMDPQLERQVETIRNLVDSYMAIVNKTVRDLMPKTIMHLMINNTAEFIFSELLANLYSCGDQNTLMEESAEQAQRRDEMLRMYHALKEALSIIGDINTTTVSTPMPPPVDDSWLQVQSVPAGRRSPTSSPTPQRRAPAVPPARPGSRGPAPGPPPAGSALGGAPPVPSRPGASPDPFGPPPQVPSRPNRAPPGVPSRSGQASPSRPESPRPPFDL

Mean Lifetime (γ1) ps (EYFP-dynI690K fusion): 2070 ps | Mean Lifetime (γ1) ps [13]: 1110 ps
B2: ECFP-dynI690K fusion (other, UniProt Q05193 1-864, looked up)
chain: MGNRGMEDLIPLVNRLQDAFSAIGQNADLDLPQIAVVGGQSAGKSSVLENFVGRDFLPRGSGIVTRRPLVLQLVNATTEYAEFLHCKGKKFTDFEEVRLEIEAETDRVTGTNKGISPVPINLRVYSPHVLNLTLVDLPGMTKVPVGDQPPDIEFQIRDMLMQFVTKENCLILAVSPANSDLANSDALKVAKEVDPQGQRTIGVITKLDLMDEGTDARDVLENKLLPLRRGYIGVVNRSQKDIDGKKDITAALAAERKFFLSHPSYRHLADRMGTPYLQKVLNQQLTNHIRDTLPGLRNKLQSQLLSIEKEVEEYKNFRPDDPARKTKALLQMVQQFAVDFEKRIEGSGDQIDTYELSGGARINRIFHERFPFELVKMEFDEKELRREISYAIKNIHGIRTGLFTPDMAFETIVKKQVKKIREPCLKCVDMVISELISTVRQCTKKLQQYPRLREEMERIVTTHIREREGRTKEQVMLLIDIELAYMNTNHEDFIGFANAQQRSNQMNKKKTSGNQDEILVIRKGWLTINNIGIMKGGSKEYWFVLTAENLSWYKDDEEKEKKYMLSVDNLKLRDVEKGFMSSKHIFALFNTEQRNVYKDYRQLELACETQEEVDSWKASFLRAGVYPERVGDKEKASETEENGSDSFMHSMDPQLERQVETIRNLVDSYMAIVNKTVRDLMPKTIMHLMKNNTKEFIFSELLANLYSCGDQNTLMEESAEQAQRRDEMLRMYHALKEALSIIGDINTTTVSTPMPPPVDDSWLQVQSVPAGRRSPTSSPTPQRRAPAVPPARPGSRGPAPGPPPAGSALGGAPPVPSRPGASPDPFGPPPQVPSRPNRAPPGVPSRSGQASPSRPESPRPPFDL
notes: it is read as I690K; also called CFP-1690K; not shown: ECFP tag
